Experimental data from PMC6677171, “Subunit interactions and arrangements in the fission yeast Mis16–Mis18–Mis19 complex” (Life Science Alliance, 2019).

Assays:
[1] = tested on: Cnp1–H4; test: Pull-down competition with full-length histones Cnp1–H4 (histone octamers); assay type: binding, S. pombe; conditions: incubation with Cnp1–H4–H2A–H2B octamers (molar excess); 25 mM Tris–HCl, pH 7.5, 500 mM NaCl, 5% glycerol, 1 mM TCEP, at least 1 h at 4°C; SDS–PAGE
Protocol: We were unable to purify these directly as recombinant proteins, probably because of the lack of a suitable chaperone. […] As free Mis19 is extremely unstable, we tested if preformed Mis16–Mis19 dimers (full-length and N-terminally truncated, see sections below) could also interact with H4–Cnp1 by incubating them in a large molar excess of histone octamer.
All proteins were expressed in insect cells using standard procedures. Genes were codon-optimised in all cases (GeneArt). Single protein constructs were cloned in pFastBac vectors (Invitrogen), whereas multi-protein complexes were cloned using the MultiBac system ([Fitzgerald et al, 2006]). The Mis16 protein carried a TEV protease-cleavable double-Strep-Tactin tag at the N terminus for purification purposes. All clones were sequence verified. Baculoviruses were generated and amplified using Sf21 cells, infected in Hi5 cells, and then further incubated at 27°C for 48 h. Harvested cells were lysed by sonication in buffer A containing 50 mM Tris–HCl, pH 7.5, 150 mM NaCl, 0.5 mM TCEP, benzonase nuclease (3 units/1 × 10^6 cells), 10% glycerol, and protease inhibitors cocktail set III (Calbiochem). […]
All in vitro pull-down assays were performed using purified proteins or protein complexes. […] Input and pull-down elution samples were analysed by SDS–PAGE.

[2] = molecular target: T1, Mis16 (Schizosaccharomyces pombe, UniProt O94244); test: Co-expression and affinity pull-down/size-exclusion co-purification of Mis19 deletions with Mis16; assay type: binding, S. pombe; conditions: co-expressed in insect cells, Strep-Tactin tag on Mis16, gel filtration, SDS–PAGE band
T1 construct: double-Strep-Tactin tag (TEV protease-cleavable) (N, cleaved yes); made in house; host or cells: insect cells (baculovirus made in Sf21, expression in Hi5)
T1 sequence (O94244 whole entry): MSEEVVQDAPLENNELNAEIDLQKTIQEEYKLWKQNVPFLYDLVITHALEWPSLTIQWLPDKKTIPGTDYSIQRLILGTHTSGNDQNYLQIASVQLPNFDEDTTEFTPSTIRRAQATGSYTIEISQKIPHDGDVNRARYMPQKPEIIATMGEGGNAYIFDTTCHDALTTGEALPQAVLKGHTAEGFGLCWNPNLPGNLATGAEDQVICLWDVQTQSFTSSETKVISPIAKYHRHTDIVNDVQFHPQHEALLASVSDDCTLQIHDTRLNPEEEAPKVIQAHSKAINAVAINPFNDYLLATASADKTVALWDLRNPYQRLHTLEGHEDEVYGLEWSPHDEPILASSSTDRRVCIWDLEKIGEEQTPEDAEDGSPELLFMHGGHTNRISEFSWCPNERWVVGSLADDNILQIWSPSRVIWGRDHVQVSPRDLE
Excerpt: Figure 2. Mis16–Mis19 contact regions. (A) Crystal structure of Mis16–Mis19 highlighting the Mis19-binding sites. Three putative binding sites A, B, and C (lighter to darker orange from N terminus to C terminus) are indicated. (B) Schematic of the various deletion constructs of Mis19 are used for binding studies showing the positions of sites A, B, and C. (C) Constructs containing affinity-tagged Mis16 and the Mis19 deletions shown above were co-expressed and purified by affinity pull-down and size-exclusion chromatography. SDS–PAGE gel of peak fractions is shown. Asterisks indicate impurities. (D) Close-up of the A- and C-binding sites. The locations of the kis1-1 (R65) and eic1-1 (F102) t.s. mutant residues are shown.
The C-terminal interaction of Mis19 with Mis16 (site C in our nomenclature) has been previously described ([An et al, 2018]). […] To test the contribution of the individual sites to the Mis16–Mis19 interaction, various truncated Mis19 constructs were designed, for which site A, […], or both A and C are missing (Fig 2B). Full-length Mis16 and Mis19C (includes sites A, B, and C, residues 52–112), construct 1 (includes site B and C, residues 66–112), construct 2 (includes binding site B, residues 66–99), and construct 3 (includes site A and B, residues 52–99) were co-expressed in insect cells, as the isolated Mis19 truncations cannot be expressed and purified. […]

B1: Mis19: S. pombe Mis18 partner protein (protein)
chain: MDLMPLEKARAIEIAFDNVFHNTKIPDNLQQFDAILKRLERRRFIPTENQKPRVYETELLVLRFREFGVKDNHNHPINLHSLRSKSLIRAQGKKLDLHNRVFLRRNVRAVKM
In the case of B1, the “interaction with Cnp1–H4 / histone transfer” value [1] is reported as “completely inhibits histone transfer to Mis16”.

B2: Mis19C: Mis19 truncation including sites A, B, and C, residues 52–112 (protein)
chain: PRVYETELLVLRFREFGVKDNHNHPINLHSLRSKSLIRAQGKKLDLHNRVFLRRNVRAVKM
With B2 the “interaction with Cnp1–H4 / histone transfer” value [1] was “no histones can be transferred onto Strep-Mis16” and the “association with Mis16” value [2] was “Mis19 is associated with Mis16”.
